Assay results taken from a protein production outcome set (Wang et al. 2014).

Test: label from the status in PepcDB records

## MSDAAISCSWKPFFRELATRLLDYEDRQPELLAALRDASISINHDEGEPLREVDPFTFFSLVLKHTSDATALPLFARVGAALGVQAPSPTDLIGVPWSNPMNAWFFAYRSQRQPGDVPLLWRLARQAVAGILDAQTFEDALKIRKVALPKLTQGLFWLNPERFLALNAVNVPYLQARGLQAAGQVQTLAEYETVLEAAHKLNPDFAALSHRAWLNSQTAALEGNHFPFARYQADAQEFAGDKVKGNLVLDRRYAPLLLDLMAGEWETLKPSRSPYSGREQLAVKVALGGGVKTDGGAFARALLFADDSGFEYVPFSAGLTLEAGLPDGRGDGPRQALQEPARQHTLLTALNAPLPAGLEATLTLNTDFGALFLLPLGPGREAEAAQQLQQYMSGVGRSRRLRVGLSLLPEHLESDKFPELLDAALTYLDALVDLLDGLMRPSEETSTEEIGVPGTRPVAPTPAAFVPVPGVPLNQILYGPPGTGKTYRVVDEALSVLDPAFLSAHPGSEGRAARKARYDELAAQGQISFVTFHQSFGYEDFIEGIKPVMSGGALSYVLQDGVFLEAVRSAGGALAPAAPEAGPSTETQPLVRPDAQVWRMYIDGTAPVSRIRDLSLGRGELRMGSYGKPPRDLTQAGVEDLSGRQLLFKESVRVGDLMLLATAADRIGAVGVVTGDYRFDPHSDPTFATDYAHTRSVKWLAQDLNVGATETLGKSFAPPTLQRVADVTPAQVLQALGVSTAGGETAHAPTPRPHVLIIDEINRGNISKIFGELITLLESGKRTGAPEALTVTLPLSRRPLSVPQSLYVIGTMNTADRSLTLLDAALRRRFVFRPVWPQPEVLPVLDLGGTALDLRKFLHVINDRIERLLSREQVIGHAYLLGLPATLGGVSSALRERILPLLEEYFFEDWSKIREVLGDESKAEALQFIHRSGSGPELRYRLNPEAFENIEAFTGVYAGVSDQDFPFDA
  protein production: failed

## MVAEKERVLMDLQDVFEYAFDEIFVTDDKGIVVRVNSTCERHYQIAAKELVGKHVKELQKDGIFYPSATLEVIEKKRPIELVQTTKSGEYLHVRTRPVFDDEGNLRRVISYSRDLTELYQLRQKVEEMDNQLKTYKKELRETYEHEGLIFKSIAMQKIIETIKKVSVVDSTVLVLGETGVGKSRLVRHLHEMSNRKNESFYEINCAALPTNLIESELFGYSGGSFTGANREGKKGLLESAHKGTLFLDEIGEMPLEIQAKLLQVLQEKTFRPIGGRELKKVDVRIVAATNRDLSMMVKQGTFRKDLYYRLNVIPILIPPLRERTEDILPLIYHYLQHFNEKYGRNVKLAPSTLQMFVGYPWEGNNREIENVIERIVITADDIVTIEDLPIAMQESTVEQSGQSLYKMLEEVERNIILKAYKTYGSSYKVAEFLKISQSAATRKIKKLIEEEENIG
  protein production: failed

## MATSGFKHLVVVKFKEDTKVDEILKGLENLVSQIDTVKSFEWGEDKESHDMLRQGFTHAFSMTFENKDGYVAFTSHPLHVEFSAAFTAVIDKIVLLDFPVAAVKSSVVATP
  protein production: not failed

## MPSIIDETVFGEPSRRLAVVYLCGALLLAGQQGYYVIIEGATPFYAGLLLSAGMALSGIAESLPKPRRRAAGVLRLTALVVLVSLLVILFVTPDLLTN
  protein production: failed

## DDNSYSLGDIWIAVATVVPEGNNVYYLRLDDGDKLWPAATNYPNYQPKPNQRALVNFTILADSTQSNLGGFSHYIKVNAIHNILTKSIAKNEGAANDSIYGTDPVSIYNNNMWIGDGYLNIYFETLWGGKTAHFINLIQPDAENDPYTLEFRHNAYDDPQYTIGAGRVAFNLSSLPDTKGETVDLVVNYWTSEGKQAYKLKYNSDKTKMEDTSQGYTNDSISNITDMK
  protein production: not failed

## MRERRFTSDAAHELRSPLTALKVQTEVAQLSDDDPQARKKALLQLHSGIDRATRLVDQLLTLSRLDSLDNLQDVAEIPLEDLLQSSVMDIYHTAQQAKIDVRLTLNAHSIKRTGQPLLLSLLVRNLLDNAVRYSPQGSVVDVTLNADNFIVRDNGPGVTPEALARIGERFYRPPGQTATGSGLGLSIVQRIAKLHGMNVEFGNAEQGGFEAKVSW
  protein production: not failed

## MSRDLGRLLKIASNQMSTRFDIFAKKYDLTGTQMTIIDYLSRNKNKEVLQRDLESEFSIKSSTATVLLQRMEIKKLLYRKVSGKDSRQKCLKLTKKANKLETIILSYMDSDQSQMTSGLNKEEVVFLEKILKRMIESD
  protein production: not failed

## AASSRSWKSWFIEQYFWLKRDKSYYSKQDDPSFQRYLDACREQSDKPYQLDTNLVNGPLVQENLYGMQVYSWNDNGKPDQKTIIYLAGGSYLNNPTTYHINMLKTLSTSLDAKIVLPIYPKAPRYTYNYTMPKLVNLYQHYYHKNQNVFLMGDSAGGGLALGLAHALHNESVPQPKQLVLLSPWLDVTMSHPEIPEYEDADPILSSWGLKRVGELWAYSADNTNHIYVSPKNGPITYLPPITLFTGTREIFYPDIRDYAAKLKAANHNITFITQEGMNHVYPIYPIEEAKTAQYQIIDAINKT
  protein production: failed

## MERITDVPESPAQSADPARVNDYDSFAEAYSAETENNLVNAYYARPAMLALAGDVAGRRILDAGCGSGPLSAALRDRGAVVTGIDASAGMLALARRRLGDDVALHVVDLSDRLPFDDGAFDDVVASLVLHYLEDWGPTLAELRRVLRPGGRLIASVDHPFVAYTFQDPRPDYFATTSYTFDWTFNGQSVPMKFWRKPLHAMTDAFTTAGFRLSVISEPQPDPAAIELFPDAFHDLSTKTCFLFFVVEVPPSATGSDDY
  protein production: failed

## MNKTELIKNVAQNAEISQKEATVVVQTVVESITNTLAAGEKVQLIGFGTFEVRERAARTGRNPQTGEEMQIAASKVPAFKAGKELKEAVK
  protein production: not failed

## MMKRVNSHGSDYWRKNGCDFTDHRAFAPVKILDVAQIKENPMSEQIELIRLAIFFSVLVICALWESNRPRKTLSQSKRVRWLNNLGLVGFNSLLITALMPILAFSAAQWAQSQQFGLLYWLEIPPFIALFVAVVLLDAVIYWQHLLFHRIPLLWRLHRMHHADQDIDVTTGSRFHPLEIMISAWIKIGAVTLLGASPLAVVVFEILLNASAMFNHSNAKLPYKIDQWLRLLVVTPDMHRVHHSVLVHETHSNFGFFLSIWDKMFHTYIAQPEMGHERMKIGLPLFRQAREQWLDKMLTQPFRER
  protein production: failed

## MLAGGKMGDMKITRHIHACVEISQGNDRIIIDPGTFGAPDLCGATILVTHNHADHVDPELLKPGMTIYAPRSVAHSIPVECHIVEHGRNFTVGSLSVEVLGSEHAMLTHSMPIAENVGYLINGRVLHPGDTFQPIKDVELALVPVNGPWVKMLDVEGYLKKFPPKRFIGIHDGIVNDRGLAINKKFLTHLGETYGSEYSPLEEGESLEILEHHHHHH
  protein production: failed

## MSALEPDDPRSVGEYRLLGRLGAGGMGRVFLGRSPGGRLVAVKVVHAELLRRPEFRDRFRREVQAARMVSGAFTAPVVDADPDAPLPWLVTSYIAGPSLEQAVAERGPFDPQAVLTLAAGLAEALVSIHAAHLVHRDLKPSNVLLAEDGPRVIDFGIVRSVDADSLTGSGHMAGSPGFMSPEQVNGDEVTWASDVFCLGAVLAFAATGTNPFGAGPTPALLYRVVHNAPDVAAVADPALRSLIADCLAKDPAHRPAPREILARIGPLGGESATALPHAQQWTPAARPTRADAVPTRIVPPVAAPPAHQHTRVDTSPAQVYPPAPAPADVRPTATGDGGRRSRRAFLFSGAGALAALGVGTGFWLNRPADPDPAEGSAPAPSPSSAPSPPPGPVGLWPLDEASGQVARDTAGGHDGTVTGVAWQGAGEGAAFDGTGSQIVTAGPVLQTGAGRSFTVAAWVRLSAVPGVFATAVSQDSADASGFYLQYSSEDQGWAFARPGLRAVGRTAPAAHVWTHLTGVCDGPARKLHLYVNGVQEAVVEDTGPAPATGAFMIGRASFDGQPRDFFPGAIRDVRAFDRALGPARVAQLAQLG
  protein production: failed

## MAHPFLRTIFEVVITLYMLHNLYKVLGDDEMDLEEMSSFFNKRVNEYEEHMMNNVGGANQYYIETAKLIPRGKEINILDLGCGTGLELDEIFKINNTVRVTGIDLAENMLRKIKEKHKDKLDRLTLIVGDYFSCDIGEKVFDAALSVETLHHFNHEQKIKLYKKIVRSLKDNGVYIEADYMAPNQDYEDHCFNENKRIRLELGIKDGFYHYDTPCTVENQIKMLYKSGFKSVEKVFKAENTVILLAKK
  protein production: failed

## MVEQLVSNAAILLAGFYIISLVYKEPITKELSTNKKIVIGIWAGLLGFALMVFGIPISNNVIVDLRHIPIIMVGFYGGPIPAIVSAIIISASRFLLSVNSAAIMAAVVMMLIGIITAIFGKRIEKFKIWGVFILNIIACSFVVINLHLILARESHFWINMTVFVLIALVIGAVSAGLMSNMIKSKQLFQKYEQDSTLDYLTKLSNVRQFDEKINHVMDAGSRQVTLMLIDIDYFKNINDTYGHDAGDAILKQLAIILKRNTSDGSEAFRNGGEEFSIVLLDCPIEKGNFFAEQVRRETEEYDFMIPSGQVVKITISVGVSSSKDGANTSEGLFKSADEALYKAKLTGRNQVCIADGN
  protein production: failed

## MEVFLMIRRKKTTIFAEAQESSTVLELKRIVQGILKRPPEEQLLFKDDQLLDESKTLRDCGFTSQIAKAQDPATVALVFREDASEGVQIHPYSTPLLPSVMKTGTDSLSDEIKSGLDSLSDEIKSGLDSVWCIKPEAAAGMEVFLMIRRKKTTIFAEAQESSTVLELKRIVQGFLKKPPKDQLLFKDNQLLEERKTLRDCGITGRIAKPEDPAILTLEFREDAFQLLHASPFSCPLIGGVLKNGLDFKRD
  protein production: failed

## MKEDYFAEDPKFFNKKLRPKNLDEILKFLKEKFILNDEDKIILITSGGTKVPLEKIEIRNIDNFSTGKRGTLICEYFLKINKKVIFLHRKGSYIPFEYHLKDLAKMENLKVEENNIRFNLTKENERNILIDNLQNYKMYYNNLFLISYDTIFEYGFYLIEISNLLNELMINKYQNTFLLKNIYHKLKQEHNINNLLLYEIFYSTNNILNDMLLFFMSIQNKKCSEISKHQNTSYKLYYKLLLFLNLRFDVYSNNQFFINIQLFFKYIFSLLSNIIQMKEKYNIQQEEIQNIILYIQMLIKNFNSNVLQNNINEQEVIHNNININNIKEEQIIPNNIKNIHNNDNINHCDDNKINNPDNHLLNTDTYILHNNNPSCNDYNLNNLSFNINKYINEEKGKNKKTNQHISEQFLFPTHLVIMCAAASDFYIPYDEMHENKIDSNYSPLSIQLCLTPKFYKIINSHFPLLKYCIFKLEDEEKILIDKSNERIKYTDLLIANLLTQRYDYVYIFKKQFEYVLLKKSNSEQIENDICYEICKHFSIL
  protein production: failed

## MLKTILSISGKPGLFKLVSHGKNMLIVESLADKKRVPAYAKDKVISLGDIAIYTNEAEVPLHEVLTNVKNKENGQQASVSTSAKPDELRAYFAEILPNFDRERVYPSDIKKLISWYNILIGAGLTEFTPEGSATEEASVKETKKEEA
  protein production: failed

## MMSAVPVSLPVKMLVTRHISPDRYGDFLAWMRQGEILAAGFPGFLGSGVLQPPEGGDQYQIVLRFDSEASLARWEQSLPRRMWLERGAALVRASHARRVTGMDSWFGAPAGAPPRWKQAVSIWLVYFPMLLLFSTALDAQLNALPLFWRVLATTLCMTPVLSFLCIPLVTRVLRGWLHPRAVGAAD
  protein production: failed

## MTRTVTGDTVQTRWGPVQVRVTVRNGVITEVTAVACPQENPKDREINSYAIPQLRREALAAQSAQIDSVSGATYTSDGYRQSLQSALDSAGLLEHHHHHH
  protein production: not failed

## MFADTCGFMNRSPEHIFGSPEIDYSDVSTGYLEDALIESGERSKRRRLLFEDPSKSFNDDDSQNDWGLHESYSCLNSQFVTPHVNTGERISGVSYCQETISNVYESPDTSVSYDKIYVREKSPTEPSSSNCGNKNKRLITKLVYPFGLVKPGGRENDVTLNDINERILMAPSRPIRHPVGDFASRPCVSGRGPGLSGKAVVALTKIQTQGRGTITIIRTKG
  protein production: failed

## ALSSLNIIHIAAPHLEALNIATGETINFSSREDDHAILIYKLEPTTGMLRTRAYIGQHMPLYCSAMGKIYMAFGHPDYVKSYWENHQHEIQPLTRNTITELPAMFDELAHIRESGAAMDREENELGVSCIAVPVFDIHGRVPYAVSISLSTSRLKQVGEKNLLKPLRETAQAISNELGFTVRDDLGAIT
  protein production: not failed
